Assay results as given in US20240392020A1 (JIANGSU HENGRUI PHARMACEUTICALS, published 2024).
Where two headings read alike, the source gives them in different places.

T1: B7H3 on the recombinant cell line CT26-B7H3 (UniProt Q5ZPR3 29-534, limits assumed)
T1 construct: whole, on cells
T1 sequence (looked up): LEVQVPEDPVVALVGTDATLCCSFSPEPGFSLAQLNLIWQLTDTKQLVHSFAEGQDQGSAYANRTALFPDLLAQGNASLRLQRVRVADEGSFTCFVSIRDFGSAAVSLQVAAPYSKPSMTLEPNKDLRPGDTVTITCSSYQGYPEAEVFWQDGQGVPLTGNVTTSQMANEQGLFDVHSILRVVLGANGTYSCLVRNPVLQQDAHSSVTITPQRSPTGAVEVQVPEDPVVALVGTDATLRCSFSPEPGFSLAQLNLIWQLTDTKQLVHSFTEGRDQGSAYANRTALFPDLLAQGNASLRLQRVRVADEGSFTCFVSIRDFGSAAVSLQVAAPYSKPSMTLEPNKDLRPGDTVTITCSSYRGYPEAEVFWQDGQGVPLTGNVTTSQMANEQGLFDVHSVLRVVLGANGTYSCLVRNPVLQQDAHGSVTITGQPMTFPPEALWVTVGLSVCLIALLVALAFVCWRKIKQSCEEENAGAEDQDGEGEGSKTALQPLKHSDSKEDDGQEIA


Columns and labels:
[1] = molecular target: T1, B7H3 on the recombinant cell line …; test: FACS, CT26-B7H3 cells
hPDL1 antigen = molecular target: T2, hPDL1 antigen (human, UniProt Q9NZQ7 19-239, limits assumed); test: ELISA
T2 construct: bought
T2 sequence (Q9NZQ7 19-239 limits assumed): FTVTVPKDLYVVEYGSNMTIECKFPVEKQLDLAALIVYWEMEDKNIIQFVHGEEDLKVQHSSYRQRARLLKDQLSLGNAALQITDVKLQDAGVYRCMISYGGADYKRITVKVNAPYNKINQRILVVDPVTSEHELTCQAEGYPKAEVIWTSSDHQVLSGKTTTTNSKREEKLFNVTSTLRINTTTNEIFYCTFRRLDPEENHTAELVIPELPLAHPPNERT
Experimental: For an antibody targeting a soluble protein, the binding activity of the antibody against the soluble protein was detected by ELISA. […] After the blocking was completed, the blocking solution was discarded; and the plate was washed 3 times with a PBST buffer (pH 7.4, PBS containing 0.1% tween-20). 100 μL of the antibody solution diluted in a gradient was added to each well, and the mixture was incubated at 37° C. for 1 h. After the incubation was completed, the plate was washed 3 times with PBST. […] The plate was washed 3 times with PBST. […] The reaction was stopped by adding 50 μL of 1 M H₂SO₄ to each well. The absorbance values at 450 nm were read on a microplate reader, the binding curves of the antibodies to an antigen were fitted with software, and the EC₅₀ values were calculated.

[2] = molecular target: T1, B7H3 on the recombinant cell line …; test: FACS, CT26-B7H3 cells; remark: listed apart in the source

Binder | EC50 [1] [nM] | other results
F2 (antibody) heavy: not shown light: DTVVTQEPSFSVSPGGTVTLTCGLSSGSVSTSHYPSWYQQTPGQAPRMLIYNTNTRSSGVPDRFSGSILGNKAALTITGAQADDESDYYCAIHVDRDIWVFGGGTKLTVLFDPVYKVKPNPPHNLSVINSEELSSILKLTWTNPSIKSVIILKYNIQYRTKDASTWSQIPPEDTASTRSSFTVQDLKPFTEYVFRIRCMKEDGKGYWSDWSEEASGIT | 59.3 | 
PL-15 (bispecific antibody, human IgG1, kappa, L234A L235A) heavy 1: not shown light 1: DIVLTQSPASLAVSPGQRATITCRASESVSIHGTHLMHWYQQKPGQPPKLLIYAASKLESGVPARFSGSGSGTDFTLTINPVEAEDTANYYCQQSFEDPLTFGQGTKLEIKRTVASGIPPKIECLPIDISIDEGKCLTVASAFTGEPTPEVTWSTGGRKIHSQEQGRFHIENTDDSTTLTIKDVQKQDGGLYTLTLRNEFGSDSATVNIHIRSI heavy 2: not shown light 2: not shown |  | EC50 (hPDL1 antigen): 1.4 nM
PL-18 (bispecific antibody, human IgG1, kappa, L234A L235A) heavy 1: not shown light 1: DIVLTQSPASLAVSPGQRATITCRASESVSIHGTHLMHWYQQKPGQPPKLLIYAASKLESGVPARFSGSGSGTDFTLTINPVEAEDTANYYCQQSFEDPLTFGQGTKLEIKRTVASGIPPKIECLPIDISIDEGKCLTVASAFTGEPTPEVTWSTGGRKIHSQEQGRFHIENTDDSTTLTIKDVQKQDGGLYTLTLRNEFGSDSATVNIHIRSI heavy 2: not shown light 2: not shown |  | EC50 (hPDL1 antigen): 1.6 nM
PL-19 (bispecific antibody, human IgG1, kappa, L234A L235A) heavy 1: not shown light 1: DIVLTQSPASLAVSPGQRATITCRASESVSIHGTHLMHWYQQKPGQPPKLLIYAASKLESGVPARFSGSGSGTDFTLTINPVEAEDTANYYCQQSFEDPLTFGQGTKLEIKRTVASGIPPKIECLPIDISIDEGKVLTVASCFTGEPTPEVTWSTGGRKIHSQEQGRFHIENTDDSTTLTIKDVQKQDGGLYTLTLRNEFGSDSATVNIHIRSI heavy 2: not shown light 2: not shown |  | EC50 (hPDL1 antigen): 1.6 nM
PL-17 (bispecific antibody, human IgG1, kappa, L234A L235A) heavy 1: not shown light 1: DIVLTQSPASLAVSPGQRATITCRASESVSIHGTHLMHWYQQKPGQPPKLLIYAASKLESGVPARFSGSGSGTDFTLTINPVEAEDTANYYCQQSFEDPLTFGQGTKLEIKRTVASGIPPKIECLPIDISIDEGKVLTVASAFTGEPTPEVTWSTGGRKIHSQEQGRFHIENTDDSTTLTIKDVQKQDGGLYTLTLRNEFGSDSATVNIHIRSI heavy 2: not shown light 2: not shown |  | EC50 (hPDL1 antigen): 1.4 nM
F8 (antibody) heavy: not shown light: DTVVTQEPSFSVSPGGTVTLTCGLSSGSVSTSHYPSWYQQTPGQAPRMLIYNTNTRSSGVPDRFSGSILGNKAALTITGAQADDESDYYCAIHVDRDIWVFGGGTKLTVLSGAPRFLTRPKAFVVSVGKDATLSSQIVGNPTPQVSWEKDQQPVAAGARFRLAQDGDLYRLTILDLALGDSGQYVSRARNAIGEAFACVGLQVDAEA |  | EC50 [2]: 3.14 nM
F9 (antibody) heavy: not shown light: DTVVTQEPSFSVSPGGTVTLTCGLSSGSVSTSHYPSWYQQTPGQAPRMLIYNTNTRSSGVPDRFSGSILGNKAALTITGAQADDESDYYCAIHVDRDIWVFGGGTKLTVLSGCPRFLTRPKAFVVSVGKDATLSSQIVGNPTPQVSWEKDQQPVAAGARFRLAQDGDLYRLTILDLALGDSGQYVSRARNAIGEAFAAVGLQVDAEA |  | EC50 [2]: 3.52 nM
F10 (antibody) heavy: not shown light: DTVVTQEPSFSVSPGGTVTLTCGLSSGSVSTSHYPSWYQQTPGQAPRMLIYNTNTRSSGVPDRFSGSILGNKAALTITGAQADDESDYYCAIHVDRDIWVFGGGTKLTVLSGAPRFLTCPKAFVVSVGKDATLSSQIVGNPTPQVSWEKDQQPVAAGARFRLAQDGDLYRLTILDLALGDSGQYVSRARNAIGEAFAAVGLQVDAEA |  | EC50 [2]: 3.94 nM
F6 (antibody) heavy: not shown light: DTVVTQEPSFSVSPGGTVTLTCGLSSGSVSTSHYPSWYQQTPGQAPRMLIYNTNTRSSGVPDRFSGSILGNKAALTITGAQADDESDYYCAIHVDRDIWVFGGGTKLTVLSGCPRFLTRPKAFVVSVGKDATLSCQIVGNPTPQVSWEKDQQPVAAGARFRLAQDGDLYRLTILDLALGDSGQYVCRARNAIGEAFAAVGLQVDAEA |  | EC50 [2]: 2.71 nM
F5 (antibody) heavy: not shown light: DTVVTQEPSFSVSPGGTVTLTCGLSSGSVSTSHYPSWYQQTPGQAPRMLIYNTNTRSSGVPDRFSGSILGNKAALTITGAQADDESDYYCAIHVDRDIWVFGGGTKLTVLSGAPRFLTRPKAFVVSVGKDATLSCQIVGNPTPQVSWEKDQQPVAAGARFRLAQDGDLYRLTILDLALGDSGQYVCRARNAIGEAFACVGLQVDAEA |  | EC50 [2]: 1.21 nM
F7 (antibody) heavy: not shown light: DTVVTQEPSFSVSPGGTVTLTCGLSSGSVSTSHYPSWYQQTPGQAPRMLIYNTNTRSSGVPDRFSGSILGNKAALTITGAQADDESDYYCAIHVDRDIWVFGGGTKLTVLSGAPRFLTCPKAFVVSVGKDATLSCQIVGNPTPQVSWEKDQQPVAAGARFRLAQDGDLYRLTILDLALGDSGQYVCRARNAIGEAFAAVGLQVDAEA |  | EC50 [2]: 3.38 nM
V4 (antibody) heavy: not shown light: QIVLTQSPAILSASPGEKVTMTCRASSSVSYMNWYQQKPGSSPKPWIYATSNLASGVPARFSVSVSGTSHSLTISRVEAEDAATYYCQQWSSNPLTFGAGTKLELKQGSPPCFLRFPRPVRVVSGAEAELKCVVLGEPPPVVVWEKGGQQLAASERLSFPADGAEHGLLLTAALPTDAGVYVCRARNAAGEAYAAAAVTVLEPP | 2.9 | 
V0 (antibody, human IgG1, lambda) heavy: not shown light: QIVLTQSPAILSASPGEKVTMTCRASSSVSYMNWYQQKPGSSPKPWIYATSNLASGVPARFSVSVSGTSHSLTISRVEAEDAATYYCQQWSSNPLTFGAGTKLELKGQPKAAPSVTLFPPSSEELQANKATLVCLISDFYPGAVTVAWKADSSPVKAGVETTTPSKQSNNKYAASSYLSLTPEQWKSHRSYSCQVTHEGSTVEKTVAPTECS | 1.8 | 
V3 (antibody) heavy: not shown light: QIVLTQSPAILSASPGEKVTMTCRASSSVSYMNWYQQKPGSSPKPWIYATSNLASGVPARFSVSVSGTSHSLTISRVEAEDAATYYCQQWSSNPLTFGAGTKLELKSGAPRFLTRPKAFVVSVGKDATLSCQIVGNPTPQVSWEKDQQPVAAGARFRLAQDGDLYRLTILDLALGDSGQYVCRARNAIGEAFAAVGLQVDAEA | 3.6 | 
V1 (antibody) heavy: not shown light: QIVLTQSPAILSASPGEKVTMTCRASSSVSYMNWYQQKPGSSPKPWIYATSNLASGVPARFSVSVSGTSHSLTISRVEAEDAATYYCQQWSSNPLTFGAGTKLELKGILQPDPPANITVTAVARNPRWLSVTWQDPHSWNSSFYRLRFELRYRAERSKTFTTWMVKDLQHHCVIHDAWSGLRHVVQLRAQEEFGQGEWSEWSPEAMGTPW | 38.4 | 
F1 (antibody) heavy: not shown light: DTVVTQEPSFSVSPGGTVTLTCGLSSGSVSTSHYPSWYQQTPGQAPRMLIYNTNTRSSGVPDRFSGSILGNKAALTITGAQADDESDYYCAIHVDRDIWVFGGGTKLTVLGILQPDPPANITVTAVARNPRWLSVTWQDPHSWNSSFYRLRFELRYRAERSKTFTTWMVKDLQHHCVIHDAWSGLRHVVQLRAQEEFGQGEWSEWSPEAMGTPW | 71.6 | 
S0 (antibody, human IgG1, kappa, also called SO) heavy: not shown light: DIQMTQSPASLSASVGDRVTITCRASENIFSYLAWYQQKPGKSPKLLVYNTRTLAEGVPSRFSGSGSGTDFSLTISSLQPEDFATYYCQHHYGTPFTFGSGTKLEIKRTVAAPSVFIFPPSDEQLKSGTASVVCLLNNFYPREAKVQWKVDNALQSGNSQESVTEQDSKDSTYSLSSTLTLSKADYEKHKVYACEVTHQGLSSPVTKSFNRGEC | 1.01 | 
S3 (antibody) heavy: not shown light: DIQMTQSPASLSASVGDRVTITCRASENIFSYLAWYQQKPGKSPKLLVYNTRTLAEGVPSRFSGSGSGTDFSLTISSLQPEDFATYYCQHHYGTPFTFGSGTKLEIKQGSPPCFLRFPRPVRVVSGAEAELKCVVLGEPPPVVVWEKGGQQLAASERLSFPADGAEHGLLLTAALPTDAGVYVCRARNAAGEAYAAAAVTVLEPP | 3.5 | 

Now from value to binder, other results behind:

EC50 [1] [nM] | Binder | other results
3.2 | V5 (antibody) heavy: not shown light: QIVLTQSPAILSASPGEKVTMTCRASSSVSYMNWYQQKPGSSPKPWIYATSNLASGVPARFSVSVSGTSHSLTISRVEAEDAATYYCQQWSSNPLTFGAGTKLELKGIPPKIEALPSDISIDEGKVLTVACAFTGEPTPEVTWSCGGRKIHSQEQGRFHIENTDDLTTLIIMDVQKQDGGLYTLSLGNEFGSDSATVNIHIRSI | 
4.7 | V6 (antibody) heavy: not shown light: QIVLTQSPAILSASPGEKVTMTCRASSSVSYMNWYQQKPGSSPKPWIYATSNLASGVPARFSVSVSGTSHSLTISRVEAEDAATYYCQQWSSNPLTFGAGTKLELKGIPPKIEALPSDISIDEGKVLTVACAFTGEPTPEVTWSCGGRKIHSQEQGRFHIENTDDLTTLIIMDVQKQDGGLYTLSLGNEFGSDSATVNIHIRSI | 
1.96 | S4 (antibody) heavy: not shown light: DIQMTQSPASLSASVGDRVTITCRASENIFSYLAWYQQKPGKSPKLLVYNTRTLAEGVPSRFSGSGSGTDFSLTISSLQPEDFATYYCQHHYGTPFTFGSGTKLEIKGIPPKIEALPSDISIDEGKVLTVACAFTGEPTPEVTWSCGGRKIHSQEQGRFHIENTDDLTTLIIMDVQKQDGGLYTLSLGNEFGSDSATVNIHIRSI | 
